Data from patent publication US20250171562A1 (ALK ABELL, published 2025).

Target: T1, recombinant human IgE (human, UniProt P01854-1 1-428)
T1 construct: made in-house (ALK); preloaded on immobilised FcεRIα in the displacement ELISA
Assay: IgE-FcεRIα displacement ELISA
Procedure, shortened: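 Streptavidin-coated plates carried site-specifically biotinylated recombinant human FcεRIα, loaded with recombinant human IgE at 13 ng/ml. sdAbs in a pM–μM series were added for 1 h, and displaced IgE was washed off. Percent displacement was the signal reduction versus the no-sdAb control, giving EC50 and maximal effect.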

T1 sequence (P01854 other isoform, or with tags, fused parts or gaps): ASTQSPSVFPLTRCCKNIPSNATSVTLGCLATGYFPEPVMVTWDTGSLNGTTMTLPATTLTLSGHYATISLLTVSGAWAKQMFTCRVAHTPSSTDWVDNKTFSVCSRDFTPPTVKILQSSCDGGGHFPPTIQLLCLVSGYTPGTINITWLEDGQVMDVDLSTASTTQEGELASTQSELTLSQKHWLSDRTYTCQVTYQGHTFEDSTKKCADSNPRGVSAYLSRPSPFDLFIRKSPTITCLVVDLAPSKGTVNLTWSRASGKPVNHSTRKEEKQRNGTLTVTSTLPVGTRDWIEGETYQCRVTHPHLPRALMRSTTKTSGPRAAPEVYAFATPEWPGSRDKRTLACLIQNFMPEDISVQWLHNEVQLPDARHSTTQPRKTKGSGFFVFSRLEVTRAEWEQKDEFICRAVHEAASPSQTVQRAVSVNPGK

Binder	EC50 [nM]	Max effect [%]
NIgG4E1A1(RS) (Fc fusion) chain 1: DVQLQESGGGLVQAGGSLRLSCLASGRTFTTTSGYNMGWFRQAPGKEREFVAGIKWVSGSNRAYAESVKGRFTISRDNAKNTVYLQMNSLKPEDTAVYYCAAATGQSYVPIREYEYVYWGQGTQVTVSRSGPPCPPCPAPEFLGGPSVFLFPPKPKDTLMISRTPEVTCVVVDVSQEDPEVQFNWYVDGVEVHNAKTKPREEQFNSTYRVVSVLTVLHQDWLNGKEYKCKVSNKGLPSSIEKTISKAKGQPREPQVYTLPPCQEEMTKNQVSLWCLVKGFYPSDIAVEWESNGQPENNYKTTPPVLDSDGSFFLYSRLTVDKSRWQEGNVFSCSVMHEALHNHYTQKSLSLSLGK chain 2: EVQLLESGGGLVQPGGSLRLSCAASGFTFGNYDMAWVRQAPGKRPEWVSSIDTGGDITHYADSVKGRFTISRDNAKNTLYLQMNSLRPEDTAVYWCATDEEYALGPNEFDYYGQGTLVTVSSRSGPPCPPCPAPEFLGGPSVFLFPPKPKDTLMISRTPEVTCVVVDVSQEDPEVQFNWYVDGVEVHNAKTKPREEQFNSTYRVVSVLTVLHQDWLNGKEYKCKVSNKGLPSSIEKTISKAKGQPREPQVCTLPPSQEEMTKNQVSLSCAVKGFYPSDIAVEWESNGQPENNYKTTPPVLDSDGSFFLVSRLTVDKSRWQEGNVFSCSVMHEALHNHYTQKSLSLSLGK		> 95
CIgG4E1A1(G4S)1 (Fc fusion) chain 1: GPPCPPCPAPEFLGGPSVFLFPPKPKDTLMISRTPEVTCVVVDVSQEDPEVQFNWYVDGVEVHNAKTKPREEQFNSTYRVVSVLTVLHQDWLNGKEYKCKVSNKGLPSSIEKTISKAKGQPREPQVYTLPPCQEEMTKNQVSLWCLVKGFYPSDIAVEWESNGQPENNYKTTPPVLDSDGSFFLYSRLTVDKSRWQEGNVFSCSVMHEALHNHYTQKSLSLSLGKGGGGSDVQLQESGGGLVQAGGSLRLSCLASGRTFTTTSGYNMGWFRQAPGKEREFVAGIKWVSGSNRAYAESVKGRFTISRDNAKNTVYLQMNSLKPEDTAVYYCAAATGQSYVPIREYEYVYWGQGTQVTVS chain 2: GPPCPPCPAPEFLGGPSVFLFPPKPKDTLMISRTPEVTCVVVDVSQEDPEVQFNWYVDGVEVHNAKTKPREEQFNSTYRVVSVLTVLHQDWLNGKEYKCKVSNKGLPSSIEKTISKAKGQPREPQVCTLPPSQEEMTKNQVSLSCAVKGFYPSDIAVEWESNGQPENNYKTTPPVLDSDGSFFLVSRLTVDKSRWQEGNVFSCSVMHEALHNHYTQKSLSLSLGKGGGGSEVQLLESGGGLVQPGGSLRLSCAASGFTFGNYDMAWVRQAPGKRPEWVSSIDTGGDITHYADSVKGRFTISRDNAKNTLYLQMNSLRPEDTAVYWCATDEEYALGPNEFDYYGQGTLVTVSS	30	> 95
CIgG4E1A1(G4S)2 (Fc fusion) chain 1: GPPCPPCPAPEFLGGPSVFLFPPKPKDTLMISRTPEVTCVVVDVSQEDPEVQFNWYVDGVEVHNAKTKPREEQFNSTYRVVSVLTVLHQDWLNGKEYKCKVSNKGLPSSIEKTISKAKGQPREPQVYTLPPCQEEMTKNQVSLWCLVKGFYPSDIAVEWESNGQPENNYKTTPPVLDSDGSFFLYSRLTVDKSRWQEGNVFSCSVMHEALHNHYTQKSLSLSLGKGGGGSGGGGSDVQLQESGGGLVQAGGSLRLSCLASGRTFTTTSGYNMGWFRQAPGKEREFVAGIKWVSGSNRAYAESVKGRFTISRDNAKNTVYLQMNSLKPEDTAVYYCAAATGQSYVPIREYEYVYWGQGTQVTVS chain 2: GPPCPPCPAPEFLGGPSVFLFPPKPKDTLMISRTPEVTCVVVDVSQEDPEVQFNWYVDGVEVHNAKTKPREEQFNSTYRVVSVLTVLHQDWLNGKEYKCKVSNKGLPSSIEKTISKAKGQPREPQVCTLPPSQEEMTKNQVSLSCAVKGFYPSDIAVEWESNGQPENNYKTTPPVLDSDGSFFLVSRLTVDKSRWQEGNVFSCSVMHEALHNHYTQKSLSLSLGKGGGGSGGGGSEVQLLESGGGLVQPGGSLRLSCAASGFTFGNYDMAWVRQAPGKRPEWVSSIDTGGDITHYADSVKGRFTISRDNAKNTLYLQMNSLRPEDTAVYWCATDEEYALGPNEFDYYGQGTLVTVSS	10	> 95
NIgG4E1A1(G4S)3 (Fc fusion) chain 1: DVQLQESGGGLVQAGGSLRLSCLASGRTFTTTSGYNMGWFRQAPGKEREFVAGIKWVSGSNRAYAESVKGRFTISRDNAKNTVYLQMNSLKPEDTAVYYCAAATGQSYVPIREYEYVYWGQGTQVTVSGGGGSGGGGSGGGGSGPPCPPCPAPEFLGGPSVFLFPPKPKDTLMISRTPEVTCVVVDVSQEDPEVQFNWYVDGVEVHNAKTKPREEQFNSTYRVVSVLTVLHQDWLNGKEYKCKVSNKGLPSSIEKTISKAKGQPREPQVYTLPPCQEEMTKNQVSLWCLVKGFYPSDIAVEWESNGQPENNYKTTPPVLDSDGSFFLYSRLTVDKSRWQEGNVFSCSVMHEALHNHYTQKSLSLSLGK chain 2: EVQLLESGGGLVQPGGSLRLSCAASGFTFGNYDMAWVRQAPGKRPEWVSSIDTGGDITHYADSVKGRFTISRDNAKNTLYLQMNSLRPEDTAVYWCATDEEYALGPNEFDYYGQGTLVTVSSGGGGSGGGGSGGGGSGPPCPPCPAPEFLGGPSVFLFPPKPKDTLMISRTPEVTCVVVDVSQEDPEVQFNWYVDGVEVHNAKTKPREEQFNSTYRVVSVLTVLHQDWLNGKEYKCKVSNKGLPSSIEKTISKAKGQPREPQVCTLPPSQEEMTKNQVSLSCAVKGFYPSDIAVEWESNGQPENNYKTTPPVLDSDGSFFLVSRLTVDKSRWQEGNVFSCSVMHEALHNHYTQKSLSLSLGK		> 95
CIgG4E1A1(G4S)3 (Fc fusion) chain 1: GPPCPPCPAPEFLGGPSVFLFPPKPKDTLMISRTPEVTCVVVDVSQEDPEVQFNWYVDGVEVHNAKTKPREEQFNSTYRVVSVLTVLHQDWLNGKEYKCKVSNKGLPSSIEKTISKAKGQPREPQVYTLPPCQEEMTKNQVSLWCLVKGFYPSDIAVEWESNGQPENNYKTTPPVLDSDGSFFLYSRLTVDKSRWQEGNVFSCSVMHEALHNHYTQKSLSLSLGKGGGGSGGGGSGGGGSDVQLQESGGGLVQAGGSLRLSCLASGRTFTTTSGYNMGWFRQAPGKEREFVAGIKWVSGSNRAYAESVKGRFTISRDNAKNTVYLQMNSLKPEDTAVYYCAAATGQSYVPIREYEYVYWGQGTQVTVS chain 2: GPPCPPCPAPEFLGGPSVFLFPPKPKDTLMISRTPEVTCVVVDVSQEDPEVQFNWYVDGVEVHNAKTKPREEQFNSTYRVVSVLTVLHQDWLNGKEYKCKVSNKGLPSSIEKTISKAKGQPREPQVCTLPPSQEEMTKNQVSLSCAVKGFYPSDIAVEWESNGQPENNYKTTPPVLDSDGSFFLVSRLTVDKSRWQEGNVFSCSVMHEALHNHYTQKSLSLSLGKGGGGSGGGGSGGGGSEVQLLESGGGLVQPGGSLRLSCAASGFTFGNYDMAWVRQAPGKRPEWVSSIDTGGDITHYADSVKGRFTISRDNAKNTLYLQMNSLRPEDTAVYWCATDEEYALGPNEFDYYGQGTLVTVSS	9	> 95

Further lines, results first:

EC50 [nM]	Max effect [%]	Binder
480	65	CIgG4E1A1(RS) (Fc fusion) chain 1: GPPCPPCPAPEFLGGPSVFLFPPKPKDTLMISRTPEVTCVVVDVSQEDPEVQFNWYVDGVEVHNAKTKPREEQFNSTYRVVSVLTVLHQDWLNGKEYKCKVSNKGLPSSIEKTISKAKGQPREPQVYTLPPCQEEMTKNQVSLWCLVKGFYPSDIAVEWESNGQPENNYKTTPPVLDSDGSFFLYSRLTVDKSRWQEGNVFSCSVMHEALHNHYTQKSLSLSLGKRSDVQLQESGGGLVQAGGSLRLSCLASGRTFTTTSGYNMGWFRQAPGKEREFVAGIKWVSGSNRAYAESVKGRFTISRDNAKNTVYLQMNSLKPEDTAVYYCAAATGQSYVPIREYEYVYWGQGTQVTVS chain 2: GPPCPPCPAPEFLGGPSVFLFPPKPKDTLMISRTPEVTCVVVDVSQEDPEVQFNWYVDGVEVHNAKTKPREEQFNSTYRVVSVLTVLHQDWLNGKEYKCKVSNKGLPSSIEKTISKAKGQPREPQVCTLPPSQEEMTKNQVSLSCAVKGFYPSDIAVEWESNGQPENNYKTTPPVLDSDGSFFLVSRLTVDKSRWQEGNVFSCSVMHEALHNHYTQKSLSLSLGKRSEVQLLESGGGLVQPGGSLRLSCAASGFTFGNYDMAWVRQAPGKRPEWVSSIDTGGDITHYADSVKGRFTISRDNAKNTLYLQMNSLRPEDTAVYWCATDEEYALGPNEFDYYGQGTLVTVSS
	> 95	NIgG4E1A1(G4S)2 (Fc fusion) chain 1: DVQLQESGGGLVQAGGSLRLSCLASGRTFTTTSGYNMGWFRQAPGKEREFVAGIKWVSGSNRAYAESVKGRFTISRDNAKNTVYLQMNSLKPEDTAVYYCAAATGQSYVPIREYEYVYWGQGTQVTVSGGGGSGGGGSGPPCPPCPAPEFLGGPSVFLFPPKPKDTLMISRTPEVTCVVVDVSQEDPEVQFNWYVDGVEVHNAKTKPREEQFNSTYRVVSVLTVLHQDWLNGKEYKCKVSNKGLPSSIEKTISKAKGQPREPQVYTLPPCQEEMTKNQVSLWCLVKGFYPSDIAVEWESNGQPENNYKTTPPVLDSDGSFFLYSRLTVDKSRWQEGNVFSCSVMHEALHNHYTQKSLSLSLGK chain 2: EVQLLESGGGLVQPGGSLRLSCAASGFTFGNYDMAWVRQAPGKRPEWVSSIDTGGDITHYADSVKGRFTISRDNAKNTLYLQMNSLRPEDTAVYWCATDEEYALGPNEFDYYGQGTLVTVSSGGGGSGGGGSGPPCPPCPAPEFLGGPSVFLFPPKPKDTLMISRTPEVTCVVVDVSQEDPEVQFNWYVDGVEVHNAKTKPREEQFNSTYRVVSVLTVLHQDWLNGKEYKCKVSNKGLPSSIEKTISKAKGQPREPQVCTLPPSQEEMTKNQVSLSCAVKGFYPSDIAVEWESNGQPENNYKTTPPVLDSDGSFFLVSRLTVDKSRWQEGNVFSCSVMHEALHNHYTQKSLSLSLGK
	> 95	NIgG4E1A1(G4S)1 (Fc fusion) chain 1: DVQLQESGGGLVQAGGSLRLSCLASGRTFTTTSGYNMGWFRQAPGKEREFVAGIKWVSGSNRAYAESVKGRFTISRDNAKNTVYLQMNSLKPEDTAVYYCAAATGQSYVPIREYEYVYWGQGTQVTVSGGGGSGPPCPPCPAPEFLGGPSVFLFPPKPKDTLMISRTPEVTCVVVDVSQEDPEVQFNWYVDGVEVHNAKTKPREEQFNSTYRVVSVLTVLHQDWLNGKEYKCKVSNKGLPSSIEKTISKAKGQPREPQVYTLPPCQEEMTKNQVSLWCLVKGFYPSDIAVEWESNGQPENNYKTTPPVLDSDGSFFLYSRLTVDKSRWQEGNVFSCSVMHEALHNHYTQKSLSLSLGK chain 2: EVQLLESGGGLVQPGGSLRLSCAASGFTFGNYDMAWVRQAPGKRPEWVSSIDTGGDITHYADSVKGRFTISRDNAKNTLYLQMNSLRPEDTAVYWCATDEEYALGPNEFDYYGQGTLVTVSSGGGGSGPPCPPCPAPEFLGGPSVFLFPPKPKDTLMISRTPEVTCVVVDVSQEDPEVQFNWYVDGVEVHNAKTKPREEQFNSTYRVVSVLTVLHQDWLNGKEYKCKVSNKGLPSSIEKTISKAKGQPREPQVCTLPPSQEEMTKNQVSLSCAVKGFYPSDIAVEWESNGQPENNYKTTPPVLDSDGSFFLVSRLTVDKSRWQEGNVFSCSVMHEALHNHYTQKSLSLSLGK
